Target: T1, recombinant full-length PD-L1 protein (Phe19-Thr290) (UniProt Q9NZQ7 19-290)
T1 construct: Programmed Death-Ligand 1 (PD-L1), residues Phe19-Thr290; also called flPD-L1; source: bought: Amsbio (TP710226)
Assay: BLI; FortéBio Octet K2; p17 or p24 immobilised on aminopropylsilane biosensors, saturated with BSA; association and dissociation 8 min each; PBS with 0.01% BSA and 0.002% Tween-20, 1,000 rpm; for kinetics flPD-L1 from 0 to 450 nM, BSA as reference, 1:1 model
Settings: both partners purified

T1 sequence (Q9NZQ7 19-290): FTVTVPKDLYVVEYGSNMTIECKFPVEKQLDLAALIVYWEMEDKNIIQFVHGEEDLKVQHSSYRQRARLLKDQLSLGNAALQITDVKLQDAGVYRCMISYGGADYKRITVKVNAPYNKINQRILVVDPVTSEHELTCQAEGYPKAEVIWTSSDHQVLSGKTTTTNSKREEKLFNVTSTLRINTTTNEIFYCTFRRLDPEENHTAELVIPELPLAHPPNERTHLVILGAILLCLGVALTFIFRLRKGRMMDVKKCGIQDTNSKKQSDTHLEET

B1: p17 HIV matrix protein (natural protein)
chain: GARASVLSGGELDRWEKIRLRPGGKKKYKLKHIVWASRELERFAVNPGLLETSEGCRQILGQLQPSLQTGSEELRSLYNTVATLYCVHQRIEIKDTKEALDKIEEEQNKSKKKAQQAAADTGHSNQVSQNY
In the case of B1, the Kd is reported as 0.3 nM.

— paper PMC9286290, “Active PD-L1 incorporation within HIV virions functionally impairs T follicular helper cells” (PLoS Pathogens, 2022)
